Measured values published in patent US20230375528.

Experiments:
[1] = biological target: ENO1 wild type (Enolase 1) (Homo sapiens) (UniProt P06733); assay: EMSA
[2] = biological target: ENO1down (ENO1-K343A) (Homo sapiens) (UniProt P06733); assay: EMSA; details: competition EMSA
Chain of ENO1down (ENO1-K343A) (Homo sapiens) (P06733 whole entry K343A): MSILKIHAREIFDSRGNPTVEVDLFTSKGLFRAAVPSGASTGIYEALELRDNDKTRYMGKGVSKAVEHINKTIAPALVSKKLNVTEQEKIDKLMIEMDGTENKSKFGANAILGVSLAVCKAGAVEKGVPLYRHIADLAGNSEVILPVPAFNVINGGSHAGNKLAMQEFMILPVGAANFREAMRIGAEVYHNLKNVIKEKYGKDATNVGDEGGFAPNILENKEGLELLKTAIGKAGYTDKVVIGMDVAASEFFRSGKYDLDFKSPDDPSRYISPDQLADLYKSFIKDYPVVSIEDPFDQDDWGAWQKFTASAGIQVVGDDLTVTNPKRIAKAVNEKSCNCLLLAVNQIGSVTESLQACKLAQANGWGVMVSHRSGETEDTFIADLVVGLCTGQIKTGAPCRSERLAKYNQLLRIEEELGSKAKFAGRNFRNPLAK

Chain of ENO1 wild type (Enolase 1) (Homo sapiens) (P06733 2-434): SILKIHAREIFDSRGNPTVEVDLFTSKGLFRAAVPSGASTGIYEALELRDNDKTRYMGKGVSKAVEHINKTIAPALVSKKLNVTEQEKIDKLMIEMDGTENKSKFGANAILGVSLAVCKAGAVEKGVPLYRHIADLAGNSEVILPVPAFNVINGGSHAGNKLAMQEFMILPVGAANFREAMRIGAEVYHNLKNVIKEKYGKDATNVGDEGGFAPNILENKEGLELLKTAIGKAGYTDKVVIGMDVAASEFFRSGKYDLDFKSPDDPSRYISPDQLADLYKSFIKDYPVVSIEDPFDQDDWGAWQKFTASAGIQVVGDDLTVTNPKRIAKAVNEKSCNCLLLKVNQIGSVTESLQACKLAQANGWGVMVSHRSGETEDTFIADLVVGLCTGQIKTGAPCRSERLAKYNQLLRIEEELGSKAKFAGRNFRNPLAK

| Substance | Ki ([1]; competition EMSA with labelled PABPC1 target 35-mer probe) [µM] | Ki ([2]; about 5-10-fold decreased RNA binding vs wt) [µM] | Ki ([1]; competition EMSA with labelled PABPC1 target probe) [µM] | Ki [2] [µM] |
| --- | --- | --- | --- | --- |
| PABPC1 5'UTR target 35-mer RNA | 0.027 | 0.224 | – | – |
| PABPC1 control 35-mer RNA (GC-matched, downstream of binding site) | – | – | 2.59 | 3.26 |
